# Experimental data published in publication PMC4510890.
# Key:
# [1] = molecular target: recombinant rabbit ASI(+)RyR1 (rabbit) (UniProt P11716)
# [2] = molecular target: recombinant rabbit ASI(+)RyR1 (rabbit) (UniProt P11716); remark: listed apart in the source
substance,measurement,setting,value
dihydropyridine receptor β1a subunit (from UniProt P19517 1-524) (natural protein),"relative Po of ASI(+)RyR1 channels in lipid bilayers, 10 nM β1a (50 nM also tested, number not given), cis 10 μM Ca2+, no ATP",[1],4.4 fold
same,"relative Po of ASI(−)RyR1 channels in lipid bilayers, 10 nM β1a (50 nM also tested, number not given), cis 10 μM Ca2+, no ATP",[1],2.3 fold
same,"relative Po of WT RyR1 channels in lipid bilayers, 10 nM to 100 nM β1a (1.8-fold at 10 nM, 1.9-fold at 100 nM), cis 10 μM Ca2+ and 2 mM ATP",[2],1.9 fold
